The results in this text go back to patent US5580955A, “Fragments of neurofibromin (NF1) and method to reverse activated ras induced malignant transformation in mammalian cells” (Ludwig Institute for Cancer Research, priority 1995, dated 1996).

Data set [1] concerns c-HaRas protein. The data set can be described thus: Ras GTPase stimulating activity: hydrolysis of [gamma-32P] GTP bound to c-HaRas protein, by GST fusion NF1 mutants. It is filed as biochemical, murine. The following applies: for Activation (fold), Ras GTPase activation: 20 ug/ml NF1 mutants; for Activation (fold), Ras GTPase activation / EC50, concentration required for 50% hydrolysis of GTP bound Ras: 25° C., 20 minutes. From the text: N- and C- terminal deletion mutants were constructed by subcloning the corresponding PCR DNA fragments into the bacterial expression vector pGEX-2TH, as described in Maruta et al., supra. FIG. 4 sets forth the DNA fragments inserted into the expression vector. The number following NF of each mutant indicates the total amino acid residues included. The DNA fragments inserted include the DNA for human type I NF357, human type II NF1-GRD (amino acid residues 1355 to 1531 in addition to the insert of 21 amino acids) and murine c-HaRas (residues 1-189). The type II-specific insert of 21 amino acids is indicated by the number 21 above a triangle following codon 1371. This 21 amino acid insert is set forth in SEQ ID NO: 2. The solid rectangle indicates the GAP active center of 56 amino acids, whereas the shaded rectangle indicates a supporting domain of 22 amino acids.
The expression vectors were transfected into E.coli and the protein expressed as GST fusion proteins. The fusion proteins were thereafter purified from E.coli as glutathione S-transfeRase fusion proteins and affinity-purified on a glutathione (GSH)-agarose column, as described in Maruta, et al., supra.
The purified proteins were then screened for Ras GTPase stimulating activity. The assay was carried out for each of the NF357 deletion mutants.
The hydrolysis of [gamma-^32 P] GTP bound to c-HaRas protein was determined by incubating with bound protein at 25° C. for 20 minutes in the presence or absence of each NF1 mutant preparation in 100 ul of a buffer containing 50 mMTris-HCl, pH 7.5, 15 mMMgCl2, 2.5 mM EDTA, 3 mM ATP, 1 mM dithiothreitol (DTT) and 0.5 mg/ml bovine serum albumin (BSA), then precipitating the unhydrolyzed [gamma-32P] GTP with charcoal, and finally measuring the radioactivity of the [gamma-32P] inorganic phosphate in the supernatant, as described previously, Maruta et al., supra. Protein concentrations were determined by the Bradford method with BSA as a standard.

The subject of data set [2] is V-HaRas transformed NIH/3T3 cells. Kind of data set: soft agar colony (SAC) formation by V-HaRas transformed NIH/3T3 cells transfected with NF1 fragment plasmids. It is filed as cell-based. Conditions: for SAC (%), relative soft agar colony forming ability: non-transfected clone #0 = 100; for Colonies/10^3 cells (number of colonies found in soft agar): 1000 cells per plate, 37° C., three weeks; for ability to form soft agar colonies (in words): compared with non-transfected parental V-HaRas transformed cells. As for the experimental part: The transfectants were then cloned in the presence of a neomycin analogue, i.e., G418 at 400 ug/ml. The transfectants were initially screened for viability in the G418 medium, following Maruta et al., supra., and Nur-E.-Kamal et al., supra.
After the transfectants were screened for viability, the ability of the parental clone and each surviving transfectant to form soft agar colonies (SAC) were then examined by incubating 1000 cells per plate at 37° C. for three weeks under standard culture conditions, as described in Maruta et al., supra.

Data set [3] shares this test system. The data set can be described thus: morphology of V-HaRas transformed NIH/3T3 cells overexpressing NF1 fragments. It is filed as cell-based. Conditions: liquid culture, compared with parental V-HaRas transformed cells.
[4] abbreviates: clone #8, relatively low (L) steady-state mRNA level.
Setting [5] is: clones with relatively high (H) mRNA level.
Setting [6] is: clones with relatively high (H) steady-state mRNA level.

“Also recorded” adds a separate entry of the source.

Take “NF56: NF1 fragment, amino acid residues 1441 to 1496 (RPFNDFVKSNFDAARRFFLDIASDCPTSDAVNHSLSFISDGNVLALHRLLWNNQEK)”: in data set [1], the “Ras GTPase stimulation (in words)” value is “no longer able to stimulate Ras GTPase activity; also recorded: cannot stimulate; also recorded: does not stimulate GTPase activity; also recorded: not capable of GTPase activation” and the “Activation (fold), Ras GTPase activation” value worked out at 0 fold. For the same molecule, the “reversion of activated Ras induced transformation (in words)” value in data set [2] (expression of the fragment in transformed cells) was “leads to reversion of activated Ras induced transformation; also recorded: capable of reversing Ras transformation”.

B1: NF 80: NF1 fragment, residues 1452-1531 (protein, UniProt P21359 1452-1531, looked up, fragment)
chain: HVLFTKEEHMRPFNDFVKSNFDAARRFFLDIASDCPTSDAVNHSLSFISDGNVLALHRLLWNNQEKIGQYLSSNRDHKAV
Turning to B1, in data set [1], the “Activation (fold), Ras GTPase activation” value amounted to 0 fold.

B2: NF 292: NF1 fragment, residues 1205-1496 (protein, UniProt P21359 1205-1496, looked up, fragment)
chain: FERLVELVTMMGDQGELPIAMALANVVPCSQWDELARVLVTLFDSRHLLYQLLWNMFSKEVELADSMQTLFRGNSLASKIMTFCFKVYGATYLQKLLDPLLRIVITSSDWQHVSFEVDPTRLEPSESLEENQRNLLQMTEKFFHAIISSSSEFPPQLRSVCHCLYQATCHSLLNKATVKEKKENKKSVVSQRFPQNSIGAVGSAMFLRFINPAIVSPYEAGILDKKPPPRIERGLKLMSKILQSIANHVLFTKEEHMRPFNDFVKSNFDAARRFFLDIASDCPTSDAVNHSL
Turning to B2, in data set [1], the “Ras GTPase stimulation (in words)” value was “stimulate normal Ras GTPase activity”; the “Activation (fold), Ras GTPase activation” value is listed as 11 fold; the “EC50, concentration required for 50% hydrolysis of GTP bound Ras” value (from here on “EC50 … for 50% hydrolysis of GTP bound Ras”) was found to be 7.5 µg/mL.

B3: NF 266: NF1 fragment, residues 1175-1440 (protein, UniProt P21359 1175-1440, looked up, fragment)
chain: TRATFMEVLTKILQQGTEFDTLAETVLADRFERLVELVTMMGDQGELPIAMALANVVPCSQWDELARVLVTLFDSRHLLYQLLWNMFSKEVELADSMQTLFRGNSLASKIMTFCFKVYGATYLQKLLDPLLRIVITSSDWQHVSFEVDPTRLEPSESLEENQRNLLQMTEKFFHAIISSSSEFPPQLRSVCHCLYQATCHSLLNKATVKEKKENKKSVVSQRFPQNSIGAVGSAMFLRFINPAIVSPYEAGILDKKPPPRIERGLK
As for B3, the “Activation (fold), Ras GTPase activation” value in data set [1] came out at 0 fold.

B4: NF 327: NF1 fragment, residues 1205-1531 (protein, UniProt P21359 1205-1531, looked up, fragment)
chain: FERLVELVTMMGDQGELPIAMALANVVPCSQWDELARVLVTLFDSRHLLYQLLWNMFSKEVELADSMQTLFRGNSLASKIMTFCFKVYGATYLQKLLDPLLRIVITSSDWQHVSFEVDPTRLEPSESLEENQRNLLQMTEKFFHAIISSSSEFPPQLRSVCHCLYQATCHSLLNKATVKEKKENKKSVVSQRFPQNSIGAVGSAMFLRFINPAIVSPYEAGILDKKPPPRIERGLKLMSKILQSIANHVLFTKEEHMRPFNDFVKSNFDAARRFFLDIASDCPTSDAVNHSLSFISDGNVLALHRLLWNNQEKIGQYLSSNRDHKAV
B4: in data set [1], the “Activation (fold), Ras GTPase activation” value was found to be 14 fold and the “EC50 … for 50% hydrolysis of GTP bound Ras” value stood at 0.40 µg/mL.

B5: NF338: NF1 protein fragment, amino acid residues 1194 to 1531, expressed from retroviral vector pMV7 (protein)
chain: DTLAETVLADRFERLVELVTMMGDQGELPIAMALANVVPCSQWDELARVLVTLFDSRHLLYQLLWNMFSKEVELADSMQTLFRGNSLASKIMTFCFKVYGATYLQKLLDPLLRIVITSSDWQHVSFEVDPTRLEPSESLEENQRNLLQMTEKFFHAIISSSSEFPPQLRSVCHCLYQVVSQRFPQNSIGAVGSAMFLRFINPAIVSPYEAGILDKKPPPRIERGLKLMSKILQSIANHVLFTKEEHMRPFNDFVKSNFDAARRFFLDIASDCPTSDAVNHSLSFISDGNVLALHRLLWNNQEKIGQYLSSNRDHKAVGRRPFDKMATLLAYLGPPEHK
Consider B5, for which the “SAC (%), relative soft agar colony forming ability” value in data set [2] (clone #8, relatively low (L) mRNA level) is on record as 5%; in data set [2] (setting [5]), 0.4%. Besides, the “average size of the soft agar colony” value in data set [2] (setting [4]) is “medium”. Moreover, the “Colonies/10^3 cells (number of colonies found in soft agar)” value is 37 Colonies/10^3 cells in data set [2] (setting [4]) and 3 Colonies/10^3 cells in data set [2] (setting [6]). The “ability to form soft agar colonies (in words)” value in data set [2] was “greatly reduced”. In data set [3], the cell morphology result is recorded as “differed significantly”.

B6: NF91: NF1 fragment, amino acid residues 1441 to 1531; GST fusion in Table II, expressed from pMV7 plasmid in cells (protein, UniProt P21359 1441-1531, looked up, fragment)
chain: LMSKILQSIANHVLFTKEEHMRPFNDFVKSNFDAARRFFLDIASDCPTSDAVNHSLSFISDGNVLALHRLLWNNQEKIGQYLSSNRDHKAV
modifications: GST fusion
Turning to B6, in data set [1], the “Ras GTPase stimulation (in words)” value is “still stimulated Ras GTPase activity; also recorded: still able to stimulate normal Ras GTPase activity”; the “efficiency of Ras GTPase stimulation, times less efficient compared to NF342 / NF357” value was “twenty”; the “Activation (fold), Ras GTPase activation” value is 10 fold; the “EC50 … for 50% hydrolysis of GTP bound Ras” value stood at 10 µg/mL. The “SAC (%), relative soft agar colony forming ability” value in data set [2] (setting [5]) turned out to be 0%. In data set [2] (setting [6]), the “Colonies/10^3 cells (number of colonies found in soft agar)” value is 0 Colonies/10^3 cells. In data set [2], the “ability to form soft agar colonies (in words)” value is “no longer able to form any soft agar colonies”. Besides, in data set [3], the cell morphology result is given as “morphologically flat”. Also, the cell morphology result in data set [3] (listed as NF91 (Sense)) was “Flat”.

B7: NF357: NF1 fragment, amino acid residues 1175-1531 of human type I neurofibromin (protein, UniProt P21359 1175-1531, looked up, fragment)
chain: TRATFMEVLTKILQQGTEFDTLAETVLADRFERLVELVTMMGDQGELPIAMALANVVPCSQWDELARVLVTLFDSRHLLYQLLWNMFSKEVELADSMQTLFRGNSLASKIMTFCFKVYGATYLQKLLDPLLRIVITSSDWQHVSFEVDPTRLEPSESLEENQRNLLQMTEKFFHAIISSSSEFPPQLRSVCHCLYQATCHSLLNKATVKEKKENKKSVVSQRFPQNSIGAVGSAMFLRFINPAIVSPYEAGILDKKPPPRIERGLKLMSKILQSIANHVLFTKEEHMRPFNDFVKSNFDAARRFFLDIASDCPTSDAVNHSLSFISDGNVLALHRLLWNNQEKIGQYLSSNRDHKAV
Turning to B7, in data set [1], the “GTPase activity, times more active than NF91” value was “twenty”; the “Activation (fold), Ras GTPase activation” value was determined as 14 fold; the “EC50 … for 50% hydrolysis of GTP bound Ras” value was found to be 0.50 µg/mL.

B8: NF 326: NF1 fragment, residues 1206-1531 (protein, UniProt P21359 1206-1531, looked up, fragment)
chain: ERLVELVTMMGDQGELPIAMALANVVPCSQWDELARVLVTLFDSRHLLYQLLWNMFSKEVELADSMQTLFRGNSLASKIMTFCFKVYGATYLQKLLDPLLRIVITSSDWQHVSFEVDPTRLEPSESLEENQRNLLQMTEKFFHAIISSSSEFPPQLRSVCHCLYQATCHSLLNKATVKEKKENKKSVVSQRFPQNSIGAVGSAMFLRFINPAIVSPYEAGILDKKPPPRIERGLKLMSKILQSIANHVLFTKEEHMRPFNDFVKSNFDAARRFFLDIASDCPTSDAVNHSLSFISDGNVLALHRLLWNNQEKIGQYLSSNRDHKAV
Take B8: in data set [1], the “Activation (fold), Ras GTPase activation” value turned out to be 11 fold and the “EC50 … for 50% hydrolysis of GTP bound Ras” value was 1.5 µg/mL.

B9: NF 342: NF1 fragment, residues 1190-1531 (protein, UniProt P21359 1190-1531, looked up, fragment)
chain: GTEFDTLAETVLADRFERLVELVTMMGDQGELPIAMALANVVPCSQWDELARVLVTLFDSRHLLYQLLWNMFSKEVELADSMQTLFRGNSLASKIMTFCFKVYGATYLQKLLDPLLRIVITSSDWQHVSFEVDPTRLEPSESLEENQRNLLQMTEKFFHAIISSSSEFPPQLRSVCHCLYQATCHSLLNKATVKEKKENKKSVVSQRFPQNSIGAVGSAMFLRFINPAIVSPYEAGILDKKPPPRIERGLKLMSKILQSIANHVLFTKEEHMRPFNDFVKSNFDAARRFFLDIASDCPTSDAVNHSLSFISDGNVLALHRLLWNNQEKIGQYLSSNRDHKAV
In the case of B9, in data set [1], the “Activation (fold), Ras GTPase activation” value is recorded as 14 fold and the “EC50 … for 50% hydrolysis of GTP bound Ras” value stood at 0.52 µg/mL.
